Square brackets hold non-standard residues; d marks the D form. Peptide text beside a SMILES is read from it. * marks the point of attachment. Sta = CC(C)C[C@H](N)[C@@H](O)CC(=O)O; Isovaleryl = CC(C)CC(=O)*
System: α-synuclein protein (wild-type, human) in MES23.5 cells
Assay: Sandwich ELISA of intracellular α-synuclein in MES23.5 cells co-transfected with wild-type human SNCA cDNA and lysosomal enzyme cDNA
Assay type: cell-based
Settings: for intracellular α-synuclein level, % of vector cDNA control levels: GBA variant plasmid 5 μg per 10 cm dish + 0.5 μg SNCA cDNA, 24 hours after transfection, no prosaposin, mean+/−sem
Experimental: Sera from six rabbits were raised and affinity-purified at Open Biosystems, Inc. (openbiosystems.com) against recombinant, full-length human αS. Recombinant αS had been HPLC- and MS-characterized and subjected to amino acid composition and protein concentration analyses. For ELISA, 384-well MaxiSorp plates (Nunc, Inc) were coated with 50 μl/well capturing polyclonal Ab (hSA-2) diluted in coating buffer (NaHCO3 with 0.2% NaN3, pH 9.6). Following washes with PBS/0.05% Tween-20 (PBS-T), plates were blocked for 2 hours at 37° C. in blocking buffer (1.125% fish skin gelatin; PBS-T). After 4 washes, samples were loaded and incubated at 4° C. for 12 hours. Biotinylated Syn-1 mAb (as the assaying Ab) was generated using 200 μg Sulfo-NHS-LC Biotin (Pierce), diluted in blocking buffer and added to the plate for 2 hours at 37° C. Following 4 washes, ExtrAvidin phosphatase (Sigma) diluted in blocking buffer was applied for 1 hr at 37° C. Color development was carried out by using Fast-p-Nitrophenyl Phosphate (Sigma) and monitored kinetically at OD 405 nm every 5 minutes for up to 60 minutes.
To optimize a ‘DNA: LIPOFECTAMINE® 2000’ ratio with low cell toxicity, MES23.5 cells were transfected with either 0.25, 0.5 or 1 μg αS-encoding, wild-type, human SNCA cDNA plus empty vector cDNA up to a total of 5.5 μg DNA per 10 cm dish. 24 hours after transfection, cell lysates were harvested as described above. For serial dilutions of cell lysates, blocking buffer containing 0.5% lysate from vector-transfected wells was used as diluent, which was also used to create the blank and the corresponding standard curve of recombinant human αS. Saturation kinetics were examined for identification of time point(s) where standards and sample dilutions were in the log phase.
MES cells were transfected with 0.5 μg per 10 cm dish of αS-encoding SNCA cDNA-carrying plasmid, plus 5 μg per 10 cm dish of wild-type or mutant, human GBA-encoding plasmid. The GBA variants used were wild type, N370S, D409H, L444P, E235A, and E340A. These 5 GBA mutants were created by site-directed mutagenesis, using the Quickchange® kit (Stratagene), and sequence-verified. The N370S, D409H and L444P are known to occur (in the homozygous or compound heterozygous state) in Gaucher disease in the heterozygous state in Parkinson Disease patients and/or patients with dementia with Lewy bodies. The E235A and E340A mutant GBA proteins are not known to occur in people.
24 hours after transfection, MES cells were lysed as described above and all lysates were analyzed by ELISA. […] This is in contrast to the result observed in Example 5 above. The observed discrepancy can reflect the differences in total DNA transfected in the two paradigms (FIG. 2B; FIG. 2C versus FIG. 4), thereby leading to changes in the DNA:LIPOFECTAMINE® 2000 ratio, and in the role of co-expressed prosaposin (saposin C). It is therefore conceivable that wild-type GBA can have variable effects on αS levels in these MES23.5 cells, depending on the rate of αS import into lysosomes and the composition as well as activation state of more than one lysosomal enzyme.
MES23.5 cells were transfected with 0.5 μg per 10 cm dish of an αS-encoding, wild-type, human SNCA cDNA-carrying plasmid (referred to as MES-hSNCA WT cells in the Western blot shown in FIG. 6), plus either 1.25, 2.5 or 5 μg per 10 cm dish of a human Cathepsin D-encoding CTSD cDNA plasmid, which was purchased from OriGene Technologies, Inc., and was under the control of a CMV promoter. The Cathepsin D clone was fully sequence-verified after isolation and maxiprep. Each transfection arm was balanced with empty vector DNA up to a total of 5.5 μg DNA per 10 cm dish. 24 hours after transfection, cells were lysed, and the resulting lysates were analyzed by the sandwich ELISA described herein. […]

Molecule	amount of αS detected in the lysate (pepstatin A included in the cell lysis buffer)	intracellular α-synuclein level, % of vector cDNA control levels
CC(C)CC(=O)N[C@H](C(=O)N[C@H](C(=O)N[C@@H](CC(C)C)[C@@H](O)CC(=O)N[C@@H](C)C(=O)N[C@@H](CC(C)C)[C@@H](O)CC(=O)O)C(C)C)C(C)C [pepstatin A, reference compound] (Isovaleryl-VV[Sta]A[Sta]-OH)	did not change the amount of αS detected in the lysate	–
N370S: human GBA mutant N370S, created by site-directed mutagenesis, disease-related (protein, UniProt P04062 40-536, looked up, variant N370S) Lysosomal acid …: ARPCIPKSFGYSSVVCVCNATYCDSFDPPTFPALGTFSRYESTRSGRRMELSMGPIQANHTGTGLLLTLQPEQKFQKVKGFGGAMTDAAALNILALSPPAQNLLLKSYFSEEGIGYNIIRVPMASCDFSIRTYTYADTPDDFQLHNFSLPEEDTKLKIPLIHRALQLAQRPVSLLASPWTSPTWLKTNGAVNGKGSLKGQPGDIYHQTWARYFVKFLDAYAEHKLQFWAVTAENEPSAGLLSGYPFQCLGFTPEHQRDFIARDLGPTLANSTHHNVRLLMLDDQRLLLPHWAKVVLTDPEAAKYVHGIAVHWYLDFLAPAKATLGETHRLFPNTMLFASEACVGSKFWEQSVRLGSWDRGMQYSHSIITSLLYHVVGWTDWNLALNPEGGPNWVRNFVDSPIIVDITKDTFYKQPMFYHLGHFSKFIPEGSQRVGLVASQKNDLDAVALMHPDGSAVVVVLNRSSKDVPLTIKDPAVGFLETISPGYSIHTYLWRRQ	–	121.1+/−4.98%
L444P: human GBA mutant L444P, created by site-directed mutagenesis, disease-related (protein, UniProt P04062 40-536, looked up, variant L444P) Lysosomal acid …: ARPCIPKSFGYSSVVCVCNATYCDSFDPPTFPALGTFSRYESTRSGRRMELSMGPIQANHTGTGLLLTLQPEQKFQKVKGFGGAMTDAAALNILALSPPAQNLLLKSYFSEEGIGYNIIRVPMASCDFSIRTYTYADTPDDFQLHNFSLPEEDTKLKIPLIHRALQLAQRPVSLLASPWTSPTWLKTNGAVNGKGSLKGQPGDIYHQTWARYFVKFLDAYAEHKLQFWAVTAENEPSAGLLSGYPFQCLGFTPEHQRDFIARDLGPTLANSTHHNVRLLMLDDQRLLLPHWAKVVLTDPEAAKYVHGIAVHWYLDFLAPAKATLGETHRLFPNTMLFASEACVGSKFWEQSVRLGSWDRGMQYSHSIITNLLYHVVGWTDWNLALNPEGGPNWVRNFVDSPIIVDITKDTFYKQPMFYHLGHFSKFIPEGSQRVGLVASQKNDPDAVALMHPDGSAVVVVLNRSSKDVPLTIKDPAVGFLETISPGYSIHTYLWRRQ	–	172.7+/−23.02%
D409H: human GBA mutant D409H, created by site-directed mutagenesis, disease-related (protein, UniProt P04062 40-536, looked up, variant D409H) Lysosomal acid …: ARPCIPKSFGYSSVVCVCNATYCDSFDPPTFPALGTFSRYESTRSGRRMELSMGPIQANHTGTGLLLTLQPEQKFQKVKGFGGAMTDAAALNILALSPPAQNLLLKSYFSEEGIGYNIIRVPMASCDFSIRTYTYADTPDDFQLHNFSLPEEDTKLKIPLIHRALQLAQRPVSLLASPWTSPTWLKTNGAVNGKGSLKGQPGDIYHQTWARYFVKFLDAYAEHKLQFWAVTAENEPSAGLLSGYPFQCLGFTPEHQRDFIARDLGPTLANSTHHNVRLLMLDDQRLLLPHWAKVVLTDPEAAKYVHGIAVHWYLDFLAPAKATLGETHRLFPNTMLFASEACVGSKFWEQSVRLGSWDRGMQYSHSIITNLLYHVVGWTDWNLALNPEGGPNWVRNFVDSPIIVDITKHTFYKQPMFYHLGHFSKFIPEGSQRVGLVASQKNDLDAVALMHPDGSAVVVVLNRSSKDVPLTIKDPAVGFLETISPGYSIHTYLWRRQ	–	269.4+/−56.6%
E235A: human GBA mutant directed at the acid/base catalyst, catalytically inactive (protein, UniProt P04062 40-536, looked up, variant E235A) Lysosomal acid …: ARPCIPKSFGYSSVVCVCNATYCDSFDPPTFPALGTFSRYESTRSGRRMELSMGPIQANHTGTGLLLTLQPEQKFQKVKGFGGAMTDAAALNILALSPPAQNLLLKSYFSEEGIGYNIIRVPMASCDFSIRTYTYADTPDDFQLHNFSLPEEDTKLKIPLIHRALQLAQRPVSLLASPWTSPTWLKTNGAVNGKGSLKGQPGDIYHQTWARYFVKFLDAYAEHKLQFWAVTAENAPSAGLLSGYPFQCLGFTPEHQRDFIARDLGPTLANSTHHNVRLLMLDDQRLLLPHWAKVVLTDPEAAKYVHGIAVHWYLDFLAPAKATLGETHRLFPNTMLFASEACVGSKFWEQSVRLGSWDRGMQYSHSIITNLLYHVVGWTDWNLALNPEGGPNWVRNFVDSPIIVDITKDTFYKQPMFYHLGHFSKFIPEGSQRVGLVASQKNDLDAVALMHPDGSAVVVVLNRSSKDVPLTIKDPAVGFLETISPGYSIHTYLWRRQ	–	231.0+/−37.14%
E340A: human GBA mutant directed at the nucleophile, catalytically inactive (protein, UniProt P04062 40-536, looked up, variant E340A) Lysosomal acid …: ARPCIPKSFGYSSVVCVCNATYCDSFDPPTFPALGTFSRYESTRSGRRMELSMGPIQANHTGTGLLLTLQPEQKFQKVKGFGGAMTDAAALNILALSPPAQNLLLKSYFSEEGIGYNIIRVPMASCDFSIRTYTYADTPDDFQLHNFSLPEEDTKLKIPLIHRALQLAQRPVSLLASPWTSPTWLKTNGAVNGKGSLKGQPGDIYHQTWARYFVKFLDAYAEHKLQFWAVTAENEPSAGLLSGYPFQCLGFTPEHQRDFIARDLGPTLANSTHHNVRLLMLDDQRLLLPHWAKVVLTDPEAAKYVHGIAVHWYLDFLAPAKATLGETHRLFPNTMLFASAACVGSKFWEQSVRLGSWDRGMQYSHSIITNLLYHVVGWTDWNLALNPEGGPNWVRNFVDSPIIVDITKDTFYKQPMFYHLGHFSKFIPEGSQRVGLVASQKNDLDAVALMHPDGSAVVVVLNRSSKDVPLTIKDPAVGFLETISPGYSIHTYLWRRQ	–	156.4+/−19.65%

Source: patent US10213494B2, “Treatment of synucleinopathies” (The Brigham and Women's Hospital, Inc., priority 2007, dated 2019)
